Results from PMC7720844.

Legend:
WTAP = WTAP (UniProt Q15007); test: co-IP, immunoblot; details: reference: wild type; sites S43,S50,S525
USP5 = USP5 (UniProt P45974); test: anti-myc co-IP, immunoblot; details: reference: wild type

“METTL3 (from UniProt Q86U44) 3A (S43A/S50A/S525A)” was tested, and the “binding against the reference” value (WTAP) was “weaker”.

With METTL3 (from UniProt Q86U44) S43A the “binding against the reference” value (USP5; sites S43) was “weaker”.

With METTL3 (from UniProt Q86U44) S50A the “binding against the reference” value (USP5; sites S50) was “weaker”.

METTL3 (from UniProt Q86U44) S525A was tested, and the “binding against the reference” value (USP5; sites S525) was “weaker”.
